In US20180238915A1 (published 2018):
Read-outs that look alike come from different tables or passages of the source.

B1: labeled G-CSF (Alexa Fluor 488) (ligand)
chain: TPLGPASSLPQSFLLKCLEQVRKIQGDGAALQEKLCATYKLCHPEELVLLGHSLGIPWAPLSSCPSQALQLAGCLSQLHSGLFLYQGLLQALEGISPELGPTLDTLQLDVADFATTIWQQMEELGMAPALQPTQGAMPAFASAFQRRAGGVLVASHLQSFLEVSYRVLRHLAQP
modifications: Alexa Fluor 488 label (carboxylic acid succinimidyl ester); sites not stated
B2: G-CSF (ligand)
chain: B1 chain

Tests used:
[1] = target: T1, negatively modulated GCSF receptor (GCSFR(-)) (UniProt Q99062 25-621, modified by S-HyNic and conjugated through HyNic-4FB bonds to a 64-base DNA oligonucleotide (SEQ. ID 2, 5' C12 amino modifier); number and sites not stated)
T1 chain: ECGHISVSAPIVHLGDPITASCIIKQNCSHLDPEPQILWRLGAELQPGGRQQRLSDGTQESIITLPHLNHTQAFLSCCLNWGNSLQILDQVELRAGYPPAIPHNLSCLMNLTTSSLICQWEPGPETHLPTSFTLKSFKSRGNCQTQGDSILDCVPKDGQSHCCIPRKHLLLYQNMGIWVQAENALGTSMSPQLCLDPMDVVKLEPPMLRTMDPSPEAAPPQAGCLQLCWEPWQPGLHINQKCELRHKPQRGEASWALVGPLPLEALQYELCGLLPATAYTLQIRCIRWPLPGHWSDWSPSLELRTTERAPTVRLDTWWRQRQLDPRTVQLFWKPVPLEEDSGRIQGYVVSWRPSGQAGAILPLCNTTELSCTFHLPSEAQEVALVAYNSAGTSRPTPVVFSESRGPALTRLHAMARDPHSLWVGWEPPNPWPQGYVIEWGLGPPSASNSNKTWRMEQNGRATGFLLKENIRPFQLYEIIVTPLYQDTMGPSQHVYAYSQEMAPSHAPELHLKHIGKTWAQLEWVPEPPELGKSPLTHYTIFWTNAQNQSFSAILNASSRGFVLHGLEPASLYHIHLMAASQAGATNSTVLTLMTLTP

[2] = target: receptor
[3] = target: receptor; assay: BLI

| Binder | koff [1] [s⁻¹] | koff [2] [s⁻¹] | koff [3] [s⁻¹] |
| --- | --- | --- | --- |
| B1 | 5e-05 | – | – |
| B2 | – | 3.8e-05 | < 1e-06 |
